The values that follow are results of earlier work, collected in patent US20240011040A1, “SALICYLIC ACID-INDUCIBLE GENE EXPRESSION COMPOSITIONS AND SYSTEMS FOR CELLS” (UNIVERSITY OF HOUSTON SYSTEM, priority 2020, published 2024).

pKd: −log10 of the molar value.

The target in data set [1] is T1, Arabidopsis thaliana (At) NPR4 (Arabidopsis thaliana, UniProt Q5ICL9).
T1 sequence (Q5ICL9 1-574): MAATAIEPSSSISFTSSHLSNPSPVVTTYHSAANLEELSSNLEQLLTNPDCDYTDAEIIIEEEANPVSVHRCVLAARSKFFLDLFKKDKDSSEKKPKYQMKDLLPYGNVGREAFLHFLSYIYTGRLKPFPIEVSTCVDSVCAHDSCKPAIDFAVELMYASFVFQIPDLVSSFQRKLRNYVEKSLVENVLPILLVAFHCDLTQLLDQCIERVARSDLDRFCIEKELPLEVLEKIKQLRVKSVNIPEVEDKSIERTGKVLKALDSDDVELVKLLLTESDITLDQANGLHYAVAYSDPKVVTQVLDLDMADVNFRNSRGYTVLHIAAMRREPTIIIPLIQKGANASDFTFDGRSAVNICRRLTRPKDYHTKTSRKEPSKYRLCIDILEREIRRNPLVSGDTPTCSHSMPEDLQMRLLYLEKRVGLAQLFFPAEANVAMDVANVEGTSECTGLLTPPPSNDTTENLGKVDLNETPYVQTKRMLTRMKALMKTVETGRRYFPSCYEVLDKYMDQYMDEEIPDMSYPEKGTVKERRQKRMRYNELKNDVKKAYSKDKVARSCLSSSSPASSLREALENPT
The following applies: AtNPR4, high-affinity sensor of SA.

Take “EPO: glycoprotein cytokine secreted mainly by the kidney; stimulates red blood cell production”: the half-life in blood entry was “around 5 h”. For orientation: pKd means the Kd on a negative log10 scale, so that one unit is a factor of ten. For `O=C(O)c1ccccc1O` [SA, salicylic acid], in data set [1], the pKd was 7.62.
